Data from PMC10531517, “Rational Design of Novel Peptidomimetics against Influenza A Virus: Biological and Computational Studies” (International Journal of Molecular Sciences, 2023).
*1 amine or outer side, *2 acyl side, *3 side chain or, on linkers, in order; H or OH if unused. Where a SMILES comes first, the peptide text is derived from it. [ ]: non-standard residue; d: D form. N(2-mercaptoethyl)Gly = O=C(CN(CCS[*:3])[*:1])[*:2]; NMeS = CN[C@@H](CO)C(=O)O

Key:
[1] = target: Full-length recombinant HA (His-Tag), H1N1 hemagglutinin, GenScript Cat No. Z03181 (influenza A virus H1N1); assay: SPR
[2] = target: Full-length recombinant HA (His-Tag), H1N1 hemagglutinin, GenScript Cat No. Z03181 (influenza A virus H1N1); assay: MST; labelled His-HA (NT647-HA) held constant, compound in 16 1:1 serial dilutions from 50 µM, PBS, 10 min at rt, standard-treated capillaries, Monolith NT.115pico, 10% LED power, high MST power, triplicate
[3] = target: T1, HA (H1N1 hemagglutinin, Cat No.: Z03181, GenScript) (Influenza A virus, UniProt C3W5S1); assay: biochemical; format: binding
T1 construct: Full-length recombinant HA (His-Tag) was immobilized; purchased GenScript Z03181-100

A/Parma/24/09 H1N1 virus [4] = test system: A/Parma/24/09 H1N1 virus; set-up: method as in Scala et al. (2017) [23]; settings: read-out: IC50 (peptide concentration that inhibits virus-induced hemagglutination by 50%), reference peptides, ref Scala et al. (2017) [23]; cited from earlier work
A/Parma/24/09 H1N1 virus [5] = test system: A/Parma/24/09 H1N1 virus; set-up: method as in Scala et al. (2017) [23]; settings: read-out: EC50 (concentration that reduced cytopathic effect by 50%); reference peptides; ref Scala et al. (2017) [23]; cited from earlier work

T1 sequence (C3W5S1 entry or part of it, added parts left off): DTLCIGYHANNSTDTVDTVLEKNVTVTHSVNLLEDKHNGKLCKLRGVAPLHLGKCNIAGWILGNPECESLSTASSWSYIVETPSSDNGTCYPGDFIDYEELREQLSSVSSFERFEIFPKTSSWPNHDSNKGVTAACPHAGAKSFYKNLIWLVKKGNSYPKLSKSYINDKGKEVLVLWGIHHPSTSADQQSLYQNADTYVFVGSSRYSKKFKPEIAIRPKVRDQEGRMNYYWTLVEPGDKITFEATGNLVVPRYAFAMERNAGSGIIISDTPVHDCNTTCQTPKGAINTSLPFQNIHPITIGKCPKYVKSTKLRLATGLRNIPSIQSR

Compound	Kd [1] [nM]	Kd [2] [nM]	also measured
NhSKHS (peptide)	2090	7400	
SKHNhS (peptide)	430	49.1	
SNLDC (peptide)	3810	701	
SLNDC (peptide)		1340	
SNKHS (peptide)	1700	39.1	
CC(=O)N[C@@H](CO)C(=O)N[C@@H](CC(C)C)C(=O)N[C@@H](CC(=O)O)C(=O)N(CCS)CC(N)=O [Peptide 14, SLDNhC] (Ac-SLD[N(2-mercaptoethyl)Gly]-NH2)			Kd [3]: 45.9 ± 10 nM
CC(=O)N[C@@H](CO)C(=O)N[C@@H](CCCCN)C(=O)N[C@@H](Cc1c[nH]cn1)C(=O)N(C)[C@@H](CO)C(N)=O [Peptide 10, SKH(N-Me)S] (Ac-SKH[NMeS]-NH2)			Kd [3]: 3040 ± 850 nM
SKH(N-Me)S (peptide)		3040	
NhSLDC (peptide)	6550	67.2	
S(N-Me)KHS (peptide)	8330	7930	
SLDNhC (peptide)		45.9	
(N-Me)SKHS (peptide)	4190	336	
SL(N-Me)DC (peptide)		8800	
SK(N-Me)HS (peptide)	1260	52.8	
S(N-Me)LDC (peptide)	580	32.5	
SLDC [Peptide 1]			IC50 (A/Parma/24/09 H1N1 virus [4]): 6 ± 3 nM; EC50 (A/Parma/24/09 H1N1 virus [5]): 0.0046 nM
SKNHS (peptide)		3070	
SLD(N-Me)C (peptide)	3800	142	
SKHS [Peptide 2]			IC50 (A/Parma/24/09 H1N1 virus [4]): 1.5 ± 0.7 nM
(N-Me)SLDC (peptide)	7600	24800	
CC(=O)N[C@@H](CO)C(=O)N[C@@H](CCCCN)C(=O)N(CC(=O)N[C@@H](CO)C(N)=O)Cc1c[nH]cn1 [Peptide 17, SKNHS]			Kd [3]: 3070 ± 790 nM
